The record followed here is paper PMC4022651, “Substitutional Analysis of the C-Terminal Domain of AbrB Revealed Its Essential Role in DNA-Binding Activity”.

The stoichiometry N is the number of molecules, sites or subunits per partner or assembly.

The target in series [1] is AbrB E80A (B. subtilis). Kind of series: SEC; analytical gel filtration (FPLC) on Superdex 75 5/150 GL; running buffer condition I: 50 mM HEPES pH 7.5, 300 mM NaCl, 2 mM β-mercaptoethanol, no glycerol; 100 µl protein applied; 0.2 ml/min; polymeric forms as % of the areas under the curve of all protein peaks.
Series [2] deals with AbrB E80A (B. subtilis). Kind of series: SEC; analytical gel filtration (FPLC) on Superdex 75 5/150 GL; running buffer condition II: 50 mM HEPES pH 7.5, 300 mM NaCl, 2 mM β-mercaptoethanol with 10% glycerol; 60 µl (100 µg) protein applied; 0.2 ml/min; polymeric forms as % of the areas under the curve of all protein peaks. (In general: In gel filtration, larger molecules generally elute earlier.)

Series [3] has as its target AbrB Q91A (B. subtilis). Kind of series: SEC; analytical gel filtration (FPLC) on Superdex 75 5/150 GL; running buffer condition I: 50 mM HEPES pH 7.5, 300 mM NaCl, 2 mM β-mercaptoethanol, no glycerol; 100 µl protein applied; 0.2 ml/min; polymeric forms as % of the areas under the curve of all protein peaks.
The target of series [4] is AbrB Q91A (B. subtilis). Briefly: SEC; analytical gel filtration (FPLC) on Superdex 75 5/150 GL; running buffer condition II: 50 mM HEPES pH 7.5, 300 mM NaCl, 2 mM β-mercaptoethanol with 10% glycerol; 60 µl (100 µg) protein applied; 0.2 ml/min; polymeric forms as % of the areas under the curve of all protein peaks.
Series [5] concerns AbrB R15A (Bacillus subtilis 168). Kind of series: EMSA. The note with it: apparent KD', from plot against AbrB tetramer; 20 mM Tris-HCl pH 8, 100 mM KCl, 5 mM MgCl2, 1 mM DTT, 10% glycerol, 0.1 mg/ml poly(dI-dC), room temperature, 20 min; 1.14 nM phyC or 0.95 nM sinIR DNA. (In general: Mobility shift assays separate free from complexed probe on a gel.)
In series [6] the target is T1, AbrB wt (Bacillus subtilis 168, UniProt P08874 3-96).
T1 sequence: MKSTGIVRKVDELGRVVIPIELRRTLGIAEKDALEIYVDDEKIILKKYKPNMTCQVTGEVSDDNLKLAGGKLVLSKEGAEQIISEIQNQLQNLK
Briefly: EMSA. Particulars: apparent KD', from plot against AbrB tetramer; 20 mM Tris-HCl pH 8, 100 mM KCl, 5 mM MgCl2, 1 mM DTT, 10% glycerol, 0.1 mg/ml poly(dI-dC), room temperature, 20 min; 1.14 nM phyC or 0.95 nM sinIR DNA.

Series [7] addresses T1, AbrB wt. Briefly: EMSA; shift above 0.1 uM, no super shift; 20 mM Tris-HCl pH 8, 100 mM KCl, 5 mM MgCl2, 1 mM DTT, 10% glycerol, 0.1 mg/ml poly(dI-dC), room temperature, 20 min; 1.14 nM phyC or 0.95 nM sinIR DNA. The note with it: protein: recombinant; tags: His6; chain copies: 4; label: 5'-32P; blunt.

In the series with AbrB E80A (B. subtilis) [1], AbrB E80A (natural protein) registered a % of the protein (AUC) in the form with n 3.9 of 78% and a % of the protein (AUC) in the form with n 8.2 of 22%. In the series with AbrB E80A (B. subtilis) [2], the % of the protein (AUC) in the form with n 4.5 was 90% and the % of the protein (AUC) in the form with n 56.3 stood at 10%.
Take AbrB Q91A (natural protein): in the series with AbrB Q91A (B. subtilis) [3], the % of the protein (AUC) in the form with n 4.7 was determined as 85% and the % of the protein (AUC) in the form with n 8.2 is 15%. In the series with AbrB Q91A (B. subtilis) [4], the % of the protein (AUC) in the form with n 4.1 was greater than 95% and the stoichiometry N worked out at 4.1.
As for phyC promoter 440 bp, the Kd was 3400 nM in series [5] and 660 nM in the series with AbrB wt [6].

B1: sinIR P1 AbrB site 36 bp (dsDNA)
DNA 1: GTGATTTAATGGCAAATGACTTCCAGAGACTAATGA
DNA 2: TCATTAGTCTCTGGAAGTCATTTGCCATTAAATCAC
On to B1, for which the binding result in the series with AbrB wt [7] was “binds”.
